Test results as given in the supplement of paper PMC10567573.

B1: KRT18 (parent)
chain: PQVRDWSHYFKIIEDLRAQIFANT
B2: STEAP1 (parent)
chain: LWKMKPRRNLEEDDYLHKDTGETS

Variants of: B1
Assay: protein stability index of a GFP-peptide fusion (GPS, HEK-293T) (PSI 1-6); higher = more stable
Conditions: c terminus: a fixed tail appended
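Further: lentivirally expressed fusions sorted by FACS into six bins by GFP to DsRed ratio, PSI derived from sequencing read proportions per bin multiplied by bin number.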

Variant	protein stability index
PQVRDWSHYFKIIEDLRAQIFKNT [A22K]	2.1
PQVRTWSHYFKIIEDLRAQIFANT [D5T]	2.53
DQVRDWSHYFKIIEDLRAQIFANT [P1D]	2.83
PQVLDWSHYFKIIEDLRAQIFANT [R4L]	1.93
PQVRDWSHYFKIIEDLRAQFFANT [I20F]	2.22

Variants of: B2
Assay: as above
Conditions: c terminus: a fixed tail appended

Variant	protein stability index
AWKMKPRRNLEEDDYLHKDTGETS [L1A]	5.06
CWKMKPRRNLEEDDYLHKDTGETS [L1C]	4.43
DWKMKPRRNLEEDDYLHKDTGETS [L1D]	5.23
EWKMKPRRNLEEDDYLHKDTGETS [L1E]	5.32
FWKMKPRRNLEEDDYLHKDTGETS [L1F]	4.31
GWKMKPRRNLEEDDYLHKDTGETS [L1G]	4.75
HWKMKPRRNLEEDDYLHKDTGETS [L1H]	4.92
IWKMKPRRNLEEDDYLHKDTGETS [L1I]	3.97
KWKMKPRRNLEEDDYLHKDTGETS [L1K]	4.57
MWKMKPRRNLEEDDYLHKDTGETS [L1M]	4.59
NWKMKPRRNLEEDDYLHKDTGETS [L1N]	4.84
PWKMKPRRNLEEDDYLHKDTGETS [L1P]	5.08
QWKMKPRRNLEEDDYLHKDTGETS [L1Q]	5.18
RWKMKPRRNLEEDDYLHKDTGETS [L1R]	4.8
SWKMKPRRNLEEDDYLHKDTGETS [L1S]	4.78
TWKMKPRRNLEEDDYLHKDTGETS [L1T]	5
VWKMKPRRNLEEDDYLHKDTGETS [L1V]	4.69
WWKMKPRRNLEEDDYLHKDTGETS [L1W]	4.18
YWKMKPRRNLEEDDYLHKDTGETS [L1Y]	4.26
LAKMKPRRNLEEDDYLHKDTGETS [W2A]	5.25
LCKMKPRRNLEEDDYLHKDTGETS [W2C]	5.08
LDKMKPRRNLEEDDYLHKDTGETS [W2D]	5.62
LEKMKPRRNLEEDDYLHKDTGETS [W2E]	5.45

Variant	protein stability index
LFKMKPRRNLEEDDYLHKDTGETS [W2F]	4.55
LGKMKPRRNLEEDDYLHKDTGETS [W2G]	4.96
LHKMKPRRNLEEDDYLHKDTGETS [W2H]	4.96
LIKMKPRRNLEEDDYLHKDTGETS [W2I]	5.05
LKKMKPRRNLEEDDYLHKDTGETS [W2K]	4.78
LLKMKPRRNLEEDDYLHKDTGETS [W2L]	5
LMKMKPRRNLEEDDYLHKDTGETS [W2M]	4.78
LNKMKPRRNLEEDDYLHKDTGETS [W2N]	4.82
LPKMKPRRNLEEDDYLHKDTGETS [W2P]	5.49
LQKMKPRRNLEEDDYLHKDTGETS [W2Q]	5.31
LRKMKPRRNLEEDDYLHKDTGETS [W2R]	4.83
LSKMKPRRNLEEDDYLHKDTGETS [W2S]	5.48
LTKMKPRRNLEEDDYLHKDTGETS [W2T]	5.22
LVKMKPRRNLEEDDYLHKDTGETS [W2V]	4.99
LYKMKPRRNLEEDDYLHKDTGETS [W2Y]	4.92
LWAMKPRRNLEEDDYLHKDTGETS [K3A]	4.19
LWCMKPRRNLEEDDYLHKDTGETS [K3C]	3.49
LWDMKPRRNLEEDDYLHKDTGETS [K3D]	5.06
LWEMKPRRNLEEDDYLHKDTGETS [K3E]	5.19
LWFMKPRRNLEEDDYLHKDTGETS [K3F]	3.31
LWGMKPRRNLEEDDYLHKDTGETS [K3G]	4.22
LWHMKPRRNLEEDDYLHKDTGETS [K3H]	4.54
LWIMKPRRNLEEDDYLHKDTGETS [K3I]	2.86

Variant	protein stability index
LWLMKPRRNLEEDDYLHKDTGETS [K3L]	3.81
LWMMKPRRNLEEDDYLHKDTGETS [K3M]	4.11
LWNMKPRRNLEEDDYLHKDTGETS [K3N]	4.8
LWPMKPRRNLEEDDYLHKDTGETS [K3P]	4.72
LWQMKPRRNLEEDDYLHKDTGETS [K3Q]	4.88
LWRMKPRRNLEEDDYLHKDTGETS [K3R]	4.28
LWSMKPRRNLEEDDYLHKDTGETS [K3S]	4.51
LWTMKPRRNLEEDDYLHKDTGETS [K3T]	4.36
LWVMKPRRNLEEDDYLHKDTGETS [K3V]	3.67
LWWMKPRRNLEEDDYLHKDTGETS [K3W]	3.27
LWYMKPRRNLEEDDYLHKDTGETS [K3Y]	3.81
LWKAKPRRNLEEDDYLHKDTGETS [M4A]	4.43
LWKCKPRRNLEEDDYLHKDTGETS [M4C]	4.27
LWKDKPRRNLEEDDYLHKDTGETS [M4D]	5.16
LWKEKPRRNLEEDDYLHKDTGETS [M4E]	4.94
LWKFKPRRNLEEDDYLHKDTGETS [M4F]	3.99
LWKGKPRRNLEEDDYLHKDTGETS [M4G]	4.86
LWKHKPRRNLEEDDYLHKDTGETS [M4H]	4.81
LWKIKPRRNLEEDDYLHKDTGETS [M4I]	4.36
LWKKKPRRNLEEDDYLHKDTGETS [M4K]	4.19
LWKLKPRRNLEEDDYLHKDTGETS [M4L]	4.55
LWKNKPRRNLEEDDYLHKDTGETS [M4N]	4.69
LWKPKPRRNLEEDDYLHKDTGETS [M4P]	4.41

Variant	protein stability index
LWKQKPRRNLEEDDYLHKDTGETS [M4Q]	4.95
LWKRKPRRNLEEDDYLHKDTGETS [M4R]	4.47
LWKSKPRRNLEEDDYLHKDTGETS [M4S]	4.69
LWKTKPRRNLEEDDYLHKDTGETS [M4T]	4.62
LWKVKPRRNLEEDDYLHKDTGETS [M4V]	4.41
LWKWKPRRNLEEDDYLHKDTGETS [M4W]	4.14
LWKYKPRRNLEEDDYLHKDTGETS [M4Y]	4.41
LWKMAPRRNLEEDDYLHKDTGETS [K5A]	3.93
LWKMCPRRNLEEDDYLHKDTGETS [K5C]	4.45
LWKMDPRRNLEEDDYLHKDTGETS [K5D]	4.8
LWKMEPRRNLEEDDYLHKDTGETS [K5E]	4.74
LWKMFPRRNLEEDDYLHKDTGETS [K5F]	2.77
LWKMGPRRNLEEDDYLHKDTGETS [K5G]	4.5
LWKMHPRRNLEEDDYLHKDTGETS [K5H]	4.4
LWKMIPRRNLEEDDYLHKDTGETS [K5I]	3.36
LWKMLPRRNLEEDDYLHKDTGETS [K5L]	3.98
LWKMMPRRNLEEDDYLHKDTGETS [K5M]	4
LWKMNPRRNLEEDDYLHKDTGETS [K5N]	4.32
LWKMPPRRNLEEDDYLHKDTGETS [K5P]	4.91
LWKMQPRRNLEEDDYLHKDTGETS [K5Q]	4.86
